Article PMC4475381, “Molecular basis for the recognition of cyclic-di-AMP by PstA, a PII-like signal transduction protein” (MicrobiologyOpen, 2015)

Assays:
PstA (LmPstA) [1] = molecular target: T1, PstA (LmPstA) (Listeria monocytogenes, UniProt Q8Y3Y7, N41A); test: DRaCALA binding titration with […]-c-di-AMP (saturation not achieved)
T1 construct: gene lmo2692; pstA N41A in pET20b, C-terminal His-tag

PstA (LmPstA) [2] = molecular target: T2, PstA (LmPstA) (Listeria monocytogenes, UniProt Q8Y3Y7, F36A); test: DRaCALA binding titration with […]-c-di-AMP
T2 construct: gene lmo2692; pstA F36A in pET20b, C-terminal His-tag

[3] = molecular target: PstA (PII-like signal transduction protein A) from Listeria monocytogenes (Listeria monocytogenes); test: SEC; gel filtration column (S-300, GE Healthcare) of purified LmPstA
[4] = molecular target: PstA (PII-like signal transduction protein A) from Listeria monocytogenes (Listeria monocytogenes); test: crystal structure; apo LmPstA (10 mg/mL); sitting drop, 20°C, 20% PEG3350, 0.1 mol/L bis-Tris pH 5.5, 0.1 mol/L ammonium acetate; 2.9 Å; trimer in the asymmetric unit
[5] = molecular target: PstA (PII-like signal transduction protein A) from Listeria monocytogenes (Listeria monocytogenes); test: crystal structure; LmPstA (20 mg/mL) cocrystallised with 2.5 mmol/L c-di-AMP; sitting drop, 20°C, 12% PEG3350, 0.1 mol/L sodium malonate pH 4.0; 1.6 Å; trimer in the asymmetric unit

stoichiometry N [3] | stoichiometry N [4] | stoichiometry N [5] | Compound | Kd (PstA (LmPstA) [1]) | Kd (PstA (LmPstA) [2])
– | – | – | Nc1ncnc2c1ncn2[C@@H]1O[C@@H]2COP(=O)(O)O[C@H]3[C@@H](O)[C@H](n4cnc5c(N)ncnc54)O[C@@H]3COP(=O)(O)O[C@H]2[C@H]1O [c-di-AMP] | ~140 µM | 7 µM
3 | 3 | 3 | PstA (PII-like signal transduction protein A) from Listeria monocytogenes (natural protein) | – | –
